IntAct's records for PubMed 15143060

B1: ADP-ribosylation factor-binding protein GGA1 (Homo sapiens), Q9UJY5 (parent)
chain: MEPAMEPETLEARINRATNPLNKELDWASINGFCEQLNEDFEGPPLATRLLAHKIQSPQEWEAIQALTVLETCMKSCGKRFHDEVGKFRFLNELIKVVSPKYLGSRTSEKVKNKILELLYSWTVGLPEEVKIAEAYQMLKKQGIVKSDPKLPDDTTFPLPPPRPKNVIFEDEEKSKMLARLLKSSHPEDLRAANKLIKEMVQEDQKRMEKISKRVNAIEEVNNNVKLLTEMVMSHSQGGAAAGSSEDLMKELYQRCERMRPTLFRLASDTEDNDEALAEILQANDNLTQVINLYKQLVRGEEVNGDATAGSIPGSTSALLDLSGLDLPPAGTTYPAMPTRPGEQASPEQPSASVSLLDDELMSLGLSDPTPPSGPSLDGTGWNSFQSSDATEPPAPALAQAPSMESRPPAQTSLPASSGLDDLDLLGKTLLQQSLPPESQQVRWEKQQPTPRLTLRDLQNKSSSCSSPSSSATSLLHTVSPEPPRPPQQPVPTELSLASITVPLESIKPSNILPVTVYDQHGFRILFHFARDPLPGRSDVLVVVVSMLSTAPQPIRNIVFQSAVPKVMKVKLQPPSGTELPAFNPIVHPSAITQVLLLANPQKEKVRLRYKLTFTMGDQTYNEMGDVDQFPPPETWGSL

Variants of: B1
Conditions: with arf1_human ARF1, P84077
Sequence of arf1_human ARF1, P84077 (P84077 whole entry): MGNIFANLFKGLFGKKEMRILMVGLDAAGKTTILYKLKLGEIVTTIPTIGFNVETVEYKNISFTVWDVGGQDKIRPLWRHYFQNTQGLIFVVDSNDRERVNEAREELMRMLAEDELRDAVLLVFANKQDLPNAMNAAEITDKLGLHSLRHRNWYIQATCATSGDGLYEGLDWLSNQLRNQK

Variant	effect of a mutation on the interaction
L182A;N194A;I197A	decreasing interaction
